The results in this text go back to publication PMC11796124.

The experiment concerns the target DP71L-Flag (Flag-tagged ASFV DP71L), expressed in HEK293T cells. The note with it: parent: est. 0.52; read off a plot.

Turning to “STING-Strep (Strep-tagged STING) (from UniProt Q86WV6) L374A”, the response (Relative IntDEN to β-actin) worked out at 0.14.
In the case of “STING-Strep (Strep-tagged STING) (from UniProt Q86WV6) R375A” it was 0.04.
